Measured values from publication PMC5658772 (2017).

Molecular target: T1, ZIKV envelope protein domain III-hFc fusion protein (ZIKV-DIII-hFc) (Zika virus strain MR766, UniProt Q32ZE1)
T1 chain: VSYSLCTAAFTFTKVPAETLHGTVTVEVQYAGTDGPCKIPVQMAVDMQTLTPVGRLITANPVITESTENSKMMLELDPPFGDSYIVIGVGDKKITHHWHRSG
Assay: BLI

B1: m302 IgG1 (antibody, V domains shown)
VH: EVQLVQSGGGLVKPGRSLRLSCAASGFTFSSYAMHWVRQAPGKGLEWVAVISYDGSNKYYADSVKGRFTISRDNSKNTLYLQMNSLRAEDTAVYYCAREIGDYYYYGMDVWGQGTLVTVSS
VL: EIVMTQSPATLSLSPGERATLSCRASQSVSSYLAWYQQKPGQAPRLLIYDASNRATGIPARFSGSGSGTDFTLTISSLQPEDFATYYCQQSYSTPLTFGGGTKVEIK
With B1 as the binder, how does the koff read?
Its koff is 0.00177 s⁻¹.
